Holding throughout (assay type): cell-based, human
The test system of data set [1] is GCase variants in HEK 293T cells. Put plainly: Western blot of GCase in LE fractions after co‐expression with FL‐LIMP‐2. Conditions: versus FL‐LIMP‐2‐3xD. Here is the method:
SDS PAGE was performed using a Tris‐glycine buffer system (resolving buffer: ThermoFisher Scientific Inc., Waltham, MA, United States, #HC2215; stacking buffer: ThermoFisher Scientific Inc., Waltham, MA, United States, #HC2115; running buffer: 25 mM Tris, 192 mM glycine, […]). All samples were prepared by adding 5× Laemmli buffer (0.3 M Tris‐HCl, pH 6.8, 10% w/v SDS, 50% v/v glycerol, 5% v/v β‐mercaptoethanol, 5% w/v bromophenol blue) to the samples in a 1:5 ratio and heating the samples for 5 min at 95 °C. The samples were then separated over a 10% polyacrylamide gel. After SDS PAGE, wet blotting was performed to transfer the proteins onto a PVDF membrane (Merck Millipore, Billerica, MA, United States, #IPFL00010). […] After incubation, membranes were washed three times with TBS‐T (TBS + 0.1% v/v TWEEN‐20) before incubation with secondary antibodies for 2 h at RT followed by three more washing steps with TBS‐T. The fluorescence‐based acquisition was done using an Odyssey (LI‐COR Biosciences, Lincoln, NE, United States) or IBright (ThermoFisher Scientific Inc., Waltham, MA, United States) imaging system. […]
Quantification of western blot data was performed in ImageStudioLite 5.2 (LI‐COR Biosciences, Lincoln, NE, United States). […]
(Immunoblotting shows a protein as a band on a membrane.)

For data set [2] the test system is unchanged. Put plainly: GCase activity in LE fractions after co‐expression of GCase variants with FL‐LIMP‐2. Conditions: versus FL‐LIMP‐2‐3xD. The method, then:
HEK 293T cells (Leibniz Institute DSMZ‐German Collection of Microorganism and Cell Cultures GmbH, Braunschweig, Germany) were cultured on TC dishes (Sarstedt, Nümbrecht, Germany, #83.3902, #83.3903) in Dulbecco's modified eagle medium (DMEM, Gibco, Carlsbad, CA, United States) supplemented with 10% fetal calf serum (FCS, PANbiotech, Aidenbach, Germany) and 1× penicillin/streptomycin (Sigma‐Aldrich, St. Louis, MO, United States, #P0781) at 37 °C, 5% CO2 and 95% humidity. Passaging was done at 70–90% confluence by detaching with trypsin (PAN‐Biotech, Aidenbach, Germany, #P10‐023100) for 5 min and transferring part of the culture to a new dish containing fresh medium. The HEK 293T cells were transfected using PEI at 60–70% confluence. For a 10 cm TC dish, the transfection mix was prepared by adding 5 µg plasmid DNA, 15 µg of PEI (ratio of 1:3 DNA to PEI) to 300 µl DMEM without FCS. After incubation for 25 min at room temperature, the mix was added to the cells. If the cell supernatant was analyzed, the cells were washed twice with phosphate‐buffered saline (PBS, Gibco, Carlsbad, CA, United States) and the medium was changed to DMEM without FCS 16 h after transfection.
Activity of GCase‐containing samples (recombinant protein, cell lysate, LE fractions, conditioned culture medium) was measured using the synthetic substrate 4‐methylumbelliferyl‐β‐D‐glucopyranoside (4MU, Merck Millipore, Billerica, MA, United States, #M3633). […] of the sample (cell supernatant, SEC fractions) or 2.5 µg of total protein from whole‐cell lysates were added to the well of a black 96‐well Maxisorp plate (ThermoFisher Scientific Inc., Waltham, MA, United States, #437 111). The reaction volume was then increased to 100 µL with GCase activity buffer (see paragraph “Cell Lysis”) and a final concentration of 1 µM of 4MU substrate was added. After incubation at 37 °C for 30 min, the reaction was stopped by adding 100 µL of stop solution (0.1 M glycine, pH 10.4). GCase activity was quantified via fluorescence of released 4‐methylumbelliferone (endpoint measurement) using an Infinite 200 Pro (TECAN, Männedorf, Switzerland), SpectraMax Gemini (Molecular Devices, San José, CA, United States) or ClarioStar (BMG LABTECH, Ortenberg, Germany) multiplate reader (λ ex: 365 nm; λ em: 445 nm).
For evaluation, all data sets obtained for GCase enzymatic activity were baseline‐corrected and normalized to the overall signal (either total signal or average of controls) within each replicate experiment to correct for signal differences between different measurement devices and replicate measurements.

Data set [3] relates to wt GCase in HEK 293F supernatant. The data set can be described thus: GCase activity in supernatant of HEK 293F cells co‐expressing soluble LIMP‐2. The note with it: co‐expression with wt GCase, 0‐72 h after transfection, n = 3. Here is the method: HEK 293F cells (ThermoFisher Scientific Inc., Waltham, MA, United States, #R79007) were cultivated in FreeStyle 293 expression medium (ThermoFisher Scientific Inc., Waltham, MA, United States, #12 338 018) in vented flat‐bottom Erlenmeyer flasks (ThermoFisher Scientific Inc., Waltham, MA, United States, #4115‐0125, #4115‐0250, #4115‐0500, #4115‐1000, #4115‐2000) on a MaxQ CO2 Plus orbital shaker (ThermoFisher Scientific Inc., Waltham, MA, United States, #88 881 102) at 125 rpm, 37 °C and 8% CO2. Regularly, the cell count was determined using a Cellometer Auto T4 Plus cell counter (Nexcelom Biocience LLC, Lawrence, Massachusetts, United States). […] For seeding, cells were counted and the desired cell number was transferred to 50 mL tubes. […]
Activity of GCase‐containing samples (recombinant protein, cell lysate, LE fractions, conditioned culture medium) was measured using the synthetic substrate 4‐methylumbelliferyl‐β‐D‐glucopyranoside (4MU, Merck Millipore, Billerica, MA, United States, #M3633). […] GCase activity was quantified via fluorescence of released 4‐methylumbelliferone (endpoint measurement) using an Infinite 200 Pro (TECAN, Männedorf, Switzerland), SpectraMax Gemini (Molecular Devices, San José, CA, United States) or ClarioStar (BMG LABTECH, Ortenberg, Germany) multiplate reader (λ ex: 365 nm; λ em: 445 nm). […]

B1: FL‐LIMP‐2: full‐length, membrane‐anchored wt LIMP‐2 (protein, UniProt Q14108 1-478, looked up)
chain: MGRCCFYTAGTLSLLLLVTSVTLLVARVFQKAVDQSIEKKIVLRNGTEAFDSWEKPPLPVYTQFYFFNVTNPEEILRGETPRVEEVGPYTYRELRNKANIQFGDNGTTISAVSNKAYVFERDQSVGDPKIDLIRTLNIPVLTVIEWSQVHFLREIIEAMLKAYQQKLFVTHTVDELLWGYKDEILSLIHVFRPDISPYFGLFYEKNGTNDGDYVFLTGEDSYLNFTKIVEWNGKTSLDWWITDKCNMINGTDGDSFHPLITKDEVLYVFPSDFCRSVYITFSDYESVQGLPAFRYKVPAEILANTSDNAGFCIPEGNCLGSGVLNVSICKNGAPIIMSFPHFYQADERFVSAIEGMHPNQEDHETFVDINPLTGIILKAAKRFQINIYVKKLDDFVETGDIRTMVFPVMYLNESVHIDKETASRLKSMINTTLIITNIPYIIMALGVFFGLVFTWLACKGQGSMDEGTADERAPLIRT
modifications: full-length
With B1, the “lysosomal GCase levels of wt, E326K and N370S” value in data set [1] is recorded as “exceeded those of the FL‐LIMP‐2‐3xD control”. Besides, the “GCase activity in LE fractions, E326K” value in data set [2] (co‐expression with GCase E326K) was “significant increases”. Moreover, in data set [2] (co‐expression with GCase L444P), the “GCase transport and activity, L444P” value is “both transport and activity could not be rescued by LIMP‐2”. Also, in data set [2] (co‐expression with GCase N370S), the “GCase activity in LE fractions, N370S” value is reported as “no increase in enzymatic activity could be determined”. Also, the “GCase activity in LE fractions, wt” value in data set [2] (co‐expression with GCase wt) is “significant increases”.

B2: sLIMP‐2: secreted LIMP‐2 ectodomain, amino acids 36–431, N‐terminal IgK leader sequence, C‐terminal TEV‐cleavable 10xHis tag (protein)
chain: SIEKKIVLRNGTEAFDSWEKPPLPVYTQFYFFNVTNPEEILRGETPRVEEVGPYTYRELRNKANIQFGDNGTTISAVSNKAYVFERDQSVGDPKIDLIRTLNIPVLTVIEWSQVHFLREIIEAMLKAYQQKLFVTHTVDELLWGYKDEILSLIHVFRPDISPYFGLFYEKNGTNDGDYVFLTGEDSYLNFTKIVEWNGKTSLDWWITDKCNMINGTDGDSFHPLITKDEVLYVFPSDFCRSVYITFSDYESVQGLPAFRYKVPAEILANTSDNAGFCIPEGNCLGSGVLNVSICKNGAPIIMSFPHFYQADERFVSAIEGMHPNQEDHETFVDINPLTGIILKAAKRFQINIYVKKLDDFVETGDIRTMVFPVMYLNESVHIDKETASRLKSMINT
modifications: left off: Igκ leader sequence, N-terminal, state not stated | 10xHis (TEV-cleavable), C-terminal, kept
As to B2, the “GCase activity in supernatant over time” value in data set [3] was “GCase activity is higher and stable over the course of the measurements”.

The values above are taken from PMC11220700, “Activation and Purification of ß‐Glucocerebrosidase by Exploiting its Transporter LIMP‐2 – Implications for Novel Treatment Strategies in Gaucher's and Parkinson's Disease” (Advanced Science, 2024).
